Data from the supplement of paper PMC10567573.

B1: SPATS1 (parent)
chain: GRKKYDIDPRNGIPKLTPGDNPYM
B2: ZNF8 (parent)
chain: RTHTGEKPYTCSVCGKSFSRTTCL

Variants of: B1
Assay: protein stability index of a GFP-peptide fusion (GPS, HEK-293T) (PSI 1-6); higher = more stable
Conditions: c terminus: a fixed tail appended
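Further: lentivirally expressed fusions sorted by FACS into six bins by GFP to DsRed ratio, PSI derived from sequencing read proportions per bin multiplied by bin number.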

Row | Variant | protein stability index
1 | GRKKYDIDPRNGIPKKTPGDNPYM [L16K] | 3.53
2 | GRKKYDIDPRNGIPKLTPGHNPYM [D20H] | 3.06
3 | GRKKYDIDPRNGIPKLTPGLNPYM [D20L] | 2.71
4 | GRKKYDIDPRNGIPKLTPGYNPYM [D20Y] | 2.49
5 | GRKKYDIDPRNGIPKLTPGRNPYM [D20R] | 3.74
6 | GRKKYDIDPRNGIPKLTPGKNPYM [D20K] | 3.74
7 | GRKKYDIDPRNGIPKLTPGFNPYM [D20F] | 2.33
8 | GRKKYDIDPRNGIPKLTPGPNPYM [D20P] | 3.2
9 | GRKKYDIDPRNGIPKLTPGMNPYM [D20M] | 2.46
10 | GRKKYDIDPRNGIPKLTPGENPYM [D20E] | 3.65
11 | GRKKYDIDPRNGIPKLTPGWNPYM [D20W] | 2.41
12 | GRKKYDIDPRNGIPKLTPGINPYM [D20I] | 2.18
13 | GRKKYDIDPRNGIPKLTPGVNPYM [D20V] | 3.37
14 | GRKKYDIDPRNGIPKLTPGSNPYM [D20S] | 3.79
15 | GRKKYDIDPRNGIPKLTPGANPYM [D20A] | 3.58
16 | GRKKYDIDPRNGIPKLTPGGNPYM [D20G] | 3.3
17 | GRKKYDIDPRNGIPKLTPGTNPYM [D20T] | 3.12
18 | GRKKYDIDPRNGIPKLTPGQNPYM [D20Q] | 3.36
19 | GRKKYDIDPRNGIPKLTPGCNPYM [D20C] | 3.47
20 | GRKKYDIDPRNGIPKLTPGNNPYM [D20N] | 3.12
21 | GRKKYDIDPRNGIPKLTPGDNDYM [P22D] | 3.91
22 | GRKKYDIDPRNGIPKLTPGDNCYM [P22C] | 3.34
23 | GRKKYDIDPRNGIPKLTPGDNWYM [P22W] | 2.62
24 | GRKKYDIDPRNGIPKLTPGDNQYM [P22Q] | 3.98
25 | GRKKYDIDPRNGIPKLTPGDNAYM [P22A] | 4.01
26 | GRKKYDIDPRNGIPKLTPGDNNYM [P22N] | 3.64

Row | Variant | protein stability index
27 | GRKKYDIDPRNGIPKLTPGDNTYM [P22T] | 4.01
28 | GRKKYDIDPRNGIPKLTPGDNEYM [P22E] | 3.85
29 | GRKKYDIDPRNGIPKLTPGDNMYM [P22M] | 3.37
30 | GRKKYDIDPRNGIPKLTPGDNGYM [P22G] | 3.53
31 | GRKKYDIDPRNGIPKLTPGDNHYM [P22H] | 3.74
32 | GRKKYDIDPRNGIPKLTPGDNSYM [P22S] | 3.54
33 | GRKKYDIDPRNGIPKLTPGDNFYM [P22F] | 3.02
34 | GRKKYDIDPRNGIPKLTPGDNVYM [P22V] | 3.42
35 | GRKKYDIDPRNGIPKLTPGDNIYM [P22I] | 3.64
36 | GRKKYDIDPRNGIPKLTPGDNLYM [P22L] | 3.31
37 | GRKKYDIDPRNGIPKLTPGDNRYM [P22R] | 4.22
38 | GRKKYDIDPRNGIPKLTPGDNKYM [P22K] | 3.89
39 | GRKKYDIDPRNGIPKLTPGDNYYM [P22Y] | 3.44
40 | GRKKYDIDPRNGIPKLTPADNPYM [G19A] | 3.32
41 | GRKKYDIDPRNGIPKLTPIDNPYM [G19I] | 3.28
42 | GRKKYDIDPRNGIPKLTPNDNPYM [G19N] | 3.76
43 | GRKKYDIDPRNGIPKLTPFDNPYM [G19F] | 2.63
44 | GRKKYDIDPRNGIPKLTPRDNPYM [G19R] | 3.35
45 | GRKKYDIDPRNGIPKLTPEDNPYM [G19E] | 4.69
46 | GRKKYDIDPRNGIPKLTPSDNPYM [G19S] | 3.59
47 | GRKKYDIDPRNGIPKLTPCDNPYM [G19C] | 3.21
48 | GRKKYDIDPRNGIPKLTPPDNPYM [G19P] | 3.73
49 | GRKKYDIDPRNGIPKLTPTDNPYM [G19T] | 3.59
50 | GRKKYDIDPRNGIPKLTPVDNPYM [G19V] | 2.88
51 | GRKKYDIDPRNGIPKLTPHDNPYM [G19H] | 3.34
52 | GRKKYDIDPRNGIPKLTPMDNPYM [G19M] | 2.81

Row | Variant | protein stability index
53 | GRKKYDIDPRNGIPKLTPLDNPYM [G19L] | 3.44
54 | GRKKYDIDPRNGIPKLTPQDNPYM [G19Q] | 3.35
55 | GRKKYDIDPRNGIPKLTPWDNPYM [G19W] | 2.3
56 | GRKKYDIDPRNGIPKLTPDDNPYM [G19D] | 3.83
57 | GRKKYDIDPRNGIPKLTPKDNPYM [G19K] | 3.31
58 | GRKKYDIDPRNGIPKLTPYDNPYM [G19Y] | 2.79
59 | GRKKYDIDPRNGIPKLTHGDNPYM [P18H] | 3.42
60 | GRKKYDIDPRNGIPKLTYGDNPYM [P18Y] | 2.46
61 | GRKKYDIDPRNGIPKLTNGDNPYM [P18N] | 4.09
62 | GRKKYDIDPRNGIPKLTRGDNPYM [P18R] | 3.24
63 | GRKKYDIDPRNGIPKLTTGDNPYM [P18T] | 3.85
64 | GRKKYDIDPRNGIPKLTVGDNPYM [P18V] | 3.34
65 | GRKKYDIDPRNGIPKLTDGDNPYM [P18D] | 3.82
66 | GRKKYDIDPRNGIPKLTWGDNPYM [P18W] | 2.73
67 | GRKKYDIDPRNGIPKLTCGDNPYM [P18C] | 3.38
68 | GRKKYDIDPRNGIPKLTKGDNPYM [P18K] | 3.62
69 | GRKKYDIDPRNGIPKLTGGDNPYM [P18G] | 2.98
70 | GRKKYDIDPRNGIPKLTEGDNPYM [P18E] | 3.92
71 | GRKKYDIDPRNGIPKLTIGDNPYM [P18I] | 3.27
72 | GRKKYDIDPRNGIPKLTSGDNPYM [P18S] | 3.55
73 | GRKKYDIDPRNGIPKLTFGDNPYM [P18F] | 1.9
74 | GRKKYDIDPRNGIPKLTLGDNPYM [P18L] | 2.81
75 | GRKKYDIDPRNGIPKLTMGDNPYM [P18M] | 3.18
76 | GRKKYDIDPRNGIPKLTQGDNPYM [P18Q] | 3.86
77 | GRKKYDIDPRNGIPKLTAGDNPYM [P18A] | 3.86

Variants of: B2
Assay: as above
Conditions: c terminus: a fixed tail appended

Row | Variant | protein stability index
78 | ETHTGEKPYTCSVCGKSFSRTTCL [R1E] | 3.13
79 | MTHTGEKPYTCSVCGKSFSRTTCL [R1M] | 2.61
80 | GTHTGEKPYTCSVCGKSFSRTTCL [R1G] | 3
81 | PTHTGEKPYTCSVCGKSFSRTTCL [R1P] | 2.64
82 | NTHTGEKPYTCSVCGKSFSRTTCL [R1N] | 2.6
83 | ATHTGEKPYTCSVCGKSFSRTTCL [R1A] | 2.43
84 | QTHTGEKPYTCSVCGKSFSRTTCL [R1Q] | 2.33
85 | TTHTGEKPYTCSVCGKSFSRTTCL [R1T] | 3.04
86 | CTHTGEKPYTCSVCGKSFSRTTCL [R1C] | 4.33
87 | VTHTGEKPYTCSVCGKSFSRTTCL [R1V] | 3.18
88 | FTHTGEKPYTCSVCGKSFSRTTCL [R1F] | 2.22
89 | LTHTGEKPYTCSVCGKSFSRTTCL [R1L] | 1.94
90 | ITHTGEKPYTCSVCGKSFSRTTCL [R1I] | 2.59
91 | STHTGEKPYTCSVCGKSFSRTTCL [R1S] | 2.34
92 | HTHTGEKPYTCSVCGKSFSRTTCL [R1H] | 2.85
93 | KTHTGEKPYTCSVCGKSFSRTTCL [R1K] | 2.24
94 | DTHTGEKPYTCSVCGKSFSRTTCL [R1D] | 2.85
